Among the data in PMC6386982, “A Thermostable Monoacylglycerol Lipase from Marine Geobacillus sp. 12AMOR1: Biochemical Characterization and Mutagenesis Study” (International Journal of Molecular Sciences, 2019) are Km, kcat and kcat/Km values, retold here.

Assay in all cases: purified protein
Common to all, as to assay type: biochemical, Geobacillus sp. 12AMOR1
Holding throughout (conditions): 20 mM Tris-HCl pH 8.0, 30 °C

Series [1] has as its system T1, CCCCCCCC(=O)Oc1ccc([N+](=O)[O-])cc1.
T1 construct: catalytic triad Ser97, Asp196, His226

The test system of series [2] is T2, CCCCCC(=O)Oc1ccc([N+](=O)[O-])cc1.
T2 construct: catalytic triad Ser97, Asp196, His226

The subject of series [3] is T3, CCCC(=O)Oc1ccc([N+](=O)[O-])cc1.
T3 construct: catalytic triad Ser97, Asp196, His226

As a reminder, the Km is the substrate concentration at which the rate is half of its maximum. For orientation: kcat means the maximal rate divided by the concentration of active sites. One may read the kcat/Km as the turnover number divided by the Michaelis constant. Consider “GMGL (Geobacillus sp. monoacylglycerol lipase) (Geobacillus sp. 12AMOR1)”, for which, in series [1], the Km stood at 2.83 mM, the kcat is 2.58 s⁻¹ and the kcat/Km is 910 M⁻¹ s⁻¹. In series [2], the Km stood at 4.06 mM, the kcat came out at 4.31 s⁻¹ and the kcat/Km came out at 1060 M⁻¹ s⁻¹. Moreover, in series [3], the Km came out at 6.80 mM, the kcat was 9.74 s⁻¹ and the kcat/Km came out at 1430 M⁻¹ s⁻¹.
In the case of “GMGL (Geobacillus sp. monoacylglycerol lipase) (Geobacillus sp. 12AMOR1; I170F)”, in series [1], the Km is listed as 4.63 mM, the kcat was determined as 2.08 s⁻¹ and the kcat/Km worked out at 450 M⁻¹ s⁻¹. Moreover, in series [2], the Km came to 1.60 mM, the kcat worked out at 3.67 s⁻¹ and the kcat/Km was 2290 M⁻¹ s⁻¹. Also, in series [3], the Km turned out to be 2.37 mM, the kcat turned out to be 3.31 s⁻¹ and the kcat/Km amounted to 1210 M⁻¹ s⁻¹.
“GMGL (Geobacillus sp. monoacylglycerol lipase) (Geobacillus sp. 12AMOR1; I145A)”: in series [1], the Km amounted to 8.32 mM, the kcat worked out at 0.95 s⁻¹ and the kcat/Km amounted to 110 M⁻¹ s⁻¹. In series [2], the Km came to 1.34 mM, the kcat is 2.02 s⁻¹ and the kcat/Km was 1510 M⁻¹ s⁻¹. Besides, in series [3], the Km was 9.56 mM, the kcat worked out at 3.25 s⁻¹ and the kcat/Km amounted to 340 M⁻¹ s⁻¹.
As for “GMGL (Geobacillus sp. monoacylglycerol lipase) (Geobacillus sp. 12AMOR1; L142A)”, the Km in series [1] worked out at 4.65 mM; in series [2], 1.66 mM; in series [3], 14.78 mM. Moreover, the results for the kcat in series [1], in series [2] and in series [3] were 1.29 s⁻¹, 4.08 s⁻¹ and 15.9 s⁻¹, respectively. For the same substance, the results for the kcat/Km in series [1], in series [2] and in series [3] were 280 M⁻¹ s⁻¹, 2460 M⁻¹ s⁻¹ and 1080 M⁻¹ s⁻¹, respectively.
